# Measured values reported in PMC3006384, “Phosphorylation of Mouse Immunity-Related GTPase (IRG) Resistance Proteins Is an Evasion Strategy for Virulent Toxoplasma gondii” (PLoS Biology, 2010).
# B1: recombinant wt Irga6 (bacterially expressed, from pGEX-4T-2-Irga6) [mouse] / itself (parent)
# chain: MGQLFSSPKSDENNDLPSSFTGYFKKFNTGRKIISQEILNLIELRMRKGNIQLTNSAISDALKEIDSSVLNVAVTGETGSGKSSFINTLRGIGNEEEGAAKTGVVEVTMERHPYKHPNIPNVVFWDLPGIGSTNFPPNTYLEKMKFYEYDFFIIISATRFKKNDIDIAKAISMMKKEFYFVRTKVDSDITNEADGKPQTFDKEKVLQDIRLNCVNTFRENGIAEPPIFLLSNKNVCHYDFPVLMDKLISDLPIYKRHNFMVSLPNITDSVIEKKRQFLKQRIWLEGFAADLVNIIPSLTFLLDSDLETLKKSMKFYRTVFGVDETSLQRLARDWEIEVDQVEAMIKSPAVFKPTDEETIQERLSRYIQEFCLANGYLLPKNSFLKEIFYLKYYFLDMVTEDAKTLLKEICLRN
# Variants of: B1
# Assay: light scattering (GTP-dependent oligomerisation)
# Conditions: with itself, value read at the last time point, 60 min, parent: 0.61, read off a plot
row,Variant,response
1,MGQLFSSPKSDENNDLPSSFTGYFKKFNTGRKIISQEILNLIELRMRKGNIQLTNSAISDALKEIDSSVLNVAVTGETGSGKSSFINTLRGIGNEEEGAAKTGVVEVDMERHPYKHPNIPNVVFWDLPGIGSTNFPPNTYLEKMKFYEYDFFIIISATRFKKNDIDIAKAISMMKKEFYFVRTKVDSDITNEADGKPQTFDKEKVLQDIRLNCVNTFRENGIAEPPIFLLSNKNVCHYDFPVLMDKLISDLPIYKRHNFMVSLPNITDSVIEKKRQFLKQRIWLEGFAADLVNIIPSLTFLLDSDLETLKKSMKFYRTVFGVDETSLQRLARDWEIEVDQVEAMIKSPAVFKPTDEETIQERLSRYIQEFCLANGYLLPKNSFLKEIFYLKYYFLDMVTEDAKTLLKEICLRN [chain 1 T108D],0.22 a.u.
